Source: a protein production outcome set (Wang et al. 2014)

Assay: label from the status in PepcDB records

Sequence	protein production
SNAMNVPFWTEEHVRATLPERDAESHKGTYGTALLLAGSDDMPGAALLAGLGAMRSGLGKLVIGTSENVIPLIVPVLPEATYWRDGWKKAADAQLEETYRAIAIGPGLPQTESVQQAVDHVLTADCPVILDAGALAKRTYPKREGPVILTPHPGEFFRMTGVPVNELQKKRAEYAKEWAAQLQTVIVLKGNQTVIAFPDGDCWLNPTGNGALAKGGTGDTLTGMILGMLCCHEDPKHAVLNAVYLHGACAELWTDEHSAHTLLAHELSDILPRVWKRFE	not failed
SNEELETAKEEMQSVNEELQTINSELHGKNELLLQANNDLQNLLDNTQIATIFLDDDLTVRNFTPAAREVFSLRDGDRGRPVTEITSLLSYDKLCEDVRTVQRTLGVVESQLDLEDESATYIMRIRPYRTVANVISGVVITFSNITEQKQQHDHLQVLMGELQHRTNNVFAVILAIARQTVRNS	failed
SNGTPLMTPTELIERQASGEQLQIIDTRSKKQYEISCVKGAIHIPLAEIRDRVAELDKNVTTITYCNKGVTGNAAQNILLNEGFKEVYNLSGGNKNY	failed
SNMQLDTLRRIVQEINSSVSLHDSLDIMVNQVADAMKVDVCSIYLLDERNQRYLLMASKGLNPESVGHVSLQLSEGLVGLVGQREEIVNLENASKHERFAYLPETGEEIYNSFLGVPVMYRRKVMGVLVVQNKQPQDFSEAAESFLVTLCAQLSGVIAHAHAVGNIDVFRKPSNGA	not failed
SPEHGQAGRKIGEEGIVLLQNKDNVLPIDLKKARKIAVIGENAIKMMTVGGGSSSLKVKYEISPLDGLKNRVGSQAEVLYVRGYVGDPTGEYNGVQTGQDLKDDRSEDELLAEAVEVSKDADYVIFFGGLNKSNHQDCEDSDRASLGLPYAQDRVIGELAKVNKNLIVVNISGNAVAMPWVNEVPAIVQGWFLGSEAGTALASVLLGDANPSGKLPFTFPARLEDVGAHKLGEYPGNKEELAHSKNNGDTINEIYREDIFVGYRWADKEKIKPLFPFGHGLSYTTF	failed
SPEYGMPSVTFGSVHPSDVLDMPVDPNEPTYCLCHQVSYGEMIGCDNPDCSIEWFHFASCGADNQPRGKWXFPRCSQE	not failed
SPGSAAKGSELSERIESFVETLKRGGGPRSSEEMARETLGLLRQIITDHRWSNAGELMELIRREGRRMTAAQPSETTVGNMVRRVLKIIREEYGRLHGRTDESDQQESLHKLLTSGGLNEDFSFHYAQLQSNIIEAINELLVELEGTMENIAAQALEHIHSNEVIMTIGFSRTVEAFLKEAARKRKFHVIVAECAPFCQGHEMAVNLSKAGIETTVMTDAAIFAVMSRVNKVIIGTKTILANGALRAVTGTHTLALAAKHHSTPLIVCAPMFKLSPQFPNEEDSFHKFVAPEEVLPFTEGDILEKVSVHCPVFDYVPPELITLFISNIGGNAPSYIYRLMSELYHPDDHVL	failed
SPLGQIQLTIRHSSQRNKLIVVVHACRNLIAFSEDGSDPYVRMYLLPDKRRSGRRKTHVSKKTLNPVFDQSFDFSVSLPEVQRRTLDVAVKNSGGFLSKDKGLLGKVLVALASEELAKGWTQWYDLTED	not failed
SPMANSGPLCCTICHERLEDTHFVQCPSVPSHKFCFPCSRESIKAQGATGEVYCPSGEKCPLVGSNVPWAFMQGEIATIL	not failed
SPNPPKLTKQMNAIIDTVINYKDSSGRQLSEVFIQLPSRKELPEYYELIRKPVDFKKIKERIRNHKYRSLGDLEKDVMLLCHNAQTFNLEGSQIYEDSIVLQSVFKSARQ	not failed
SQEIVAGELERCFLAMPESVLPIVTMEERNDLCRRAGHLSGFTHTASLESSLGGTVTFLLNRNFIRIQTSTVGEVFMRILPFSDSSSVICVVTTVLHPVADSRIDFYTTEWKPLKTDRFWQQPRIEDFFLPHTDRQSYAYQAIYASLTPSYMQVSLSEESDTLSIRQTVTETLAEEEKPLAAIFLSPEPLVYRWQSGRFVRQVR	not failed
SQELTLSPGPAKLTPTLDPTHRMELILSTSPAELTLDPACQPKLPLDSTCQPEMTFNPGPTELTLDPEHQPEETPAPSLAELTLEPVHRRPELLDACADLINDQWPRSRTSRLHSLGQSSDAFPLCLMLLSPHPTLEAAPVVVGHARLSRVLNQPQSLLVETVVVARALRGRGFGRRLMEGLEVFARARGFRKLHLTTHDQVHFYTHLGYQLGEPVQGLVFTSRRLPATLLNAFPTAPSPRPPRKAPNLTAQAAPRGPKGPPLPPPPPLPECLTISPPVPSGPPSKSLLETQYQNVRGRPIFWMEKDI	not failed
SQGLDTLLRDLTDRAVVQVPGAVACSVTVRRADRLMTLAGSTGLPSGLDLRQYENGSGPCVDAAESGDAQYCADLAEETRWPAYTEYALATGVRCVLALPLPIEGETGAALNLYGLVPGSLVQGLDAARAFAERAADAVNEALRIERRQASAADVRTALLSRSVIDQAVGMLMARERI	not failed
SQPQQGKQYEVLPVSLQEYNLAPLTEAFALTCGHCRSMEEFVPQIESLTEQKVEKMHVTFNESAQISAIIFYTAVMQLDATPDKAFMADLFAAVQMGADATAEERQQAVEKAFESRNLISPYHLDEAQQEKLFEYITKAESITTRGQINSVPAFIVNGKYQVITGGHDSVEAMAETINYLLKQ	not failed
SRKRLSAPELRLSLTKGPGNDGASPTQSAPSSPDGSSDLEIDELETPSDSEQLDSGHEFEWEDELPRAEGLGTSETAERLGRGCMWDVTGEDGHHWRVFRMGPREQRVDMTVIEPYKKVLSHGGYHGDGLNAVILFASCYLPRSSIPNYTYVMEHLFRYMVGTLELLVAENYLLVHLSGGTSRAQVPPLSWIRQCYRTLDRRLRKNLRALVVVHATWYVKAFLALLRPFISSKFTRKIRFLDSLGELAQLISLDQVHIPEAVRQLDRDLHGSGGT	failed
SSALSRNGSFITKEKKDTVLRQVRLDPCDLQPIFDDMLHFLNPEELRVIEEIPQAEDKLDRLFEIIGVKSQEASQTLLDSVYSHLPDLL	not failed
SSETPAQCSIKQERISYTPPESPVPSYASSTPLHVPVPRALRMEEDSIRLPAHLRLQPIYWSRDDVAQWLKWAENEFSLRPIDSNTFEMNGKALLLLTKEDFRYRSPHSGDVLYELLQHILKQRKPRILFSPFFHPGNSIHTQPEVILHQNHEEDNCVQRTPRPSVDNVHHNPPTIELLHRSRSPITTNHRPSPDPEQRPLRSPLDNMIRRLSPAERAQGPRPHQENNHQESYPLSVSPMENNHCPASSESHPKPSSPRQESTRVIQLMPSPIMHPLILNPRHSVDFKQSRLSEDGLHREGKPINLSHREDLAYMNHIMVSVSPPEEHAMPIGRIADCRLLWDYVYQLLSDSRYENFIRWEDKESKIFRIVDPNGLARLWGNHKNRTNMTYEKMSRALRHYYKLNIIRKEPGQRLLFRFMKTPDEIMSGRTDRLEHLESQELDEQIYQEDEC	not failed
SSKPPPKPVKPGEGGQVKVFRALYTFEPRTPDELYFEEGDIIYITDMSDTNWWKGTSKGRTGLIPSNYVAEQAESIDNPLHEAAKRGNLSWLRECLDNRVGVNGLDKAGSTALYWACHGGHKDIVEMLFTQPNIELNQQNKLGDTALHAAAWKGYADIVQLFLAKGARTDLRNIEKKLAFDMATNAACASLLKKKQGTDAVRTLSNAEDYLDDEDSD	failed
SSKVIIPKIVGHRGVGKEGLAPENTLRSFVLCMERNIPYIETDLRVCKTGEIVLFHGTPEGTIPFYKDGTSRIGDLSLEELKRLDVGGGHTIPSLEELFVAIEEQKFNLKLNLELKGEEWKRKESGDHQRLLLLVEKYHMQERVDYCSFHHEALAHLKALCPDVKITYLFNYMGQPTPLDFVEQACYGDANGVSMLFHYLTKEQVCTAHEKGLSVTVWMPWIFDDSEEDWKKCLELQVDLICSNYPFGLMNFLSNISE	not failed
SSLICSISNEVPEHPCVSPVSNHVYERRLIEKYIAENGTDPINNQPLSEEQLIDIKVAHPIRPKPPSATSIPAILKALQDEWDAVMLHSFTLRQQLQTTRQELSHALYQHDAACRVIARLTKEVTAAREALATLKPQAGLIVPQAVPSSQPSVVGAGEPMDLGELVGMTPEIIQKLQDKATVLTTERKKRGKTVPEELVKPEELSKYRQVASHVGLHSASIPGILALDLCPSDTNKILTGGADKNVVVFDKSSEQILATLKGHTKKVTSVVFHPSQDLVFSASPDATIRIWSVPNASCVQVVRAHESAVTGLSLHATGDYLLSSSDDQYWAFSDIQTGRVLTKVTDETSGCSLTCAQFHPDGLIFGTGTMDSQIKIWDLKERTNVANFPGHSGPITSIAFSENGYYLATAADDSSVKLWDLRKLKNFKTLQLDNNFEVKSLIFDQSGTYLALGGTDVQIYICKQWTEILHFTEHSGLTTGVAFGHHAKFIASTGMDRSLKFYSL	not failed
SSPQDTCCPPDSWPALKVDYKPKGKLEDIGKGLKAYVVGNGPRAVIALNDVFGIESGHSKEICDAIADKGFTVVFPDVFRGKPLQVSDMSKLFDELPGWAKQFDYEPALRKDVVEVILPYLHDKLGFKSNDQIALAGFCWGAFMLFHLAGDTKLPGGPFACGVSFHPSVQIEGVFQRDPLQLIDRATCPQLLLPSAGEPDYMKEEGDAIKKLRAKPFGASCGVKTFPSMQHGWVNRGDRNDPQVVKEAQEALQLAVDFMMRHTKPKA	not failed
SSRKSGIGHEASLKRKAEEKLESYRKKIHMKNQAEEKAAEQFRMRLKNKQDEMKLEGDLRRSQRACQQLDVQKNIQVPREAWYWLRLEEETEEDEEEKEQDEDEYKSEDLSVLEKLQILTSYLREEHLYCIWCGTAYEDKEDLSSNCPGPTSADHD	failed
SSSQDVLIHSDDPCHPANLICTLCKQFFHNNWCTGTGGGISIKDPNTNYYYLAPSGVQKEKMIPEDLFVMDAQTLEYLRSPKLYKPSACTPLFLACYQKKNAGAIIHTHSQNAVICSLLFGDEFRIANIEQIKAIPSGKVDPVTKKPMALSFFDTLKIPIIENMAHEDELIDDLHKTFKDYPDTCAVIVRRHGIFVWGPTIDKAKIFNEAIDYLMELAIKMYQMGIPPDCGIGEEKKHLKMASP	not failed
STGSATTTPIDSLDDAYITPVQIGTPAQTLNLDFDTGSSDLWVFSSETTASEVDGQTIYTPSKSTTAKLLSGATWSISYGDGSSSSGDVYTDTVSVGGLTVTGQAVESAKKVSSSFTEDSTIDGLLGLAFSTLNTVSPTQQKTFFDNAKASLDSPVFTADLGYHAPGTYNFGFIDTTAYTGSITYTAVSTKQGFWEWTSTGYAVGSGTFKSTSIDGIADTGTTLLYLPATVVSAYWAQVSGAKSSSSVGGYVFPCSATLPSFTFGVGSARIVIPGDYIDFGPISTGSSSCFGGIQSSAGIGINIFGDVALKAAFVVFNGATTPTLGFASK	not failed
STMEKSVLGGQDQLRVRVTELEDEVRNLRKINRDLFDFSTRFITRPAK	not failed
STNLQEKGLVVSIVDTLMFDTGRAEVKPDFQKKLVEIGEILKTIDNYIRIEGHTDNTPISNSQYASNIELGSARSNNVEHLFIDVSKIPVTQMYTVSYADTRPVADNNSEAGKARNRRVDIVILNSKFNAVEQESSGK	failed
SVILFDRTFISPTEISDIYTKDAIGMKKADYLRKKLTSIFPEIEVQNLPDTINISNYLNDSDFDIIIVNSEHFNIKLLSELNDLLYKISTPYMYAWIEGSRGYIGPLIYPPDTSCFNCYLTWRFFGTFMEDKIKAINNYGSSGYIFPLDKIIGALTVLEVCKAIGSLGTPLFNKIILVEVLPTLTIRYIPILKDPKCNVCEG	failed
TAGKKAAMDRLSTQEGIISALAIDQRGALKKMIKALDVEPTDAQIETFKELVSKELTPYASAILLDPEYGLPAAKARDTEAGLLLAYEKTGYDATTPGRLPDLLADWSVLRLKEEGADAIKFLLYYDVDEDPEINHQKHVFIERLGSECAEEDLPFYLELVSYDAQIADATSLEYAKVKPHKVNEMMKEFSKPQYKVDVLKVEVPVNMNFVEGFAPAETAYTKEEAANYFLEQSQATDLPFIFLSAGVSTELFQETLRFAKEAGSTFNGVLCGRATWKNGVKPFVEAGETAACDWLKTEGRENIESLNEVIAATASSWHAKVQVNE	failed
